Test results taken from US20020172962, “Methods of producing nucleic acid ligands” (GILEAD SCIENCES, INC., published 2002).

How the values were obtained:
[1] = target: T1, HIV-1 reverse transcriptase (HIV-RT) (HIV-1, UniProt P03366;P03366 P03366:600-1159,P03366:600-1039); assay: filter; selected by HIV-RT from mixed 2'-OMe/2'-OH population
HIV-1 Rev [2] = target: T2, HIV-1 Rev (HIV-1, UniProt P04618 P04618:1-116); assay: footprint; 200 mM KOAc, 50 mM Tris pH 7.7, 1 mM DTT, 5 mM MgCl2; 500 nM Rev; conditions: tags: American Biotechnologies, Inc
T2 sequence (P04618 whole entry, one chain of several): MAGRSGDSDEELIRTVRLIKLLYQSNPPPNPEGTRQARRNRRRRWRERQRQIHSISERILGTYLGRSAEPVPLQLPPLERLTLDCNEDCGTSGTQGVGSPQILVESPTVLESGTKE
Description: (§1) Chemical Modification of RNA. Chemical modification techniques for nucleic acids are described in general in Ehresmann et al. (1987) Nucleic Acids Research 15:9109-9128. Modification of RNA under native conditions was performed in 200 mM KOAc, 50 mM Tris-HCl pH 7.7, 1 mM EDTA at 37° C. Modification under denaturing conditions was done in 7 M urea, 50 mM Tris-HCl pH 7.7 at 90° C. Concentration of modifying agents and incubation times are as follows: ethylnitrosourea (ENU)-1/5 dilution v/v of ethanol saturated with ENU, native 1-3 hours, denaturing 5 minutes; dimethyl sulfate (DMS)-1/750-fold dilution v/v, native 8 minutes, denaturing 1 minute; kethoxal- 0.5 mg/ml, native 5 minutes, denaturing 2 minutes; carbodiimide (CMCT)-10 mg/ml, native 30 minutes, denaturing 3 minutes; diethyl pyrocarbonate (DEPC)-1/10 dilution v/v, native 10 minutes, denaturing 1 minute.
Modification of RNA in the presence of Rev. “Footprinting” of the Rev ligand, modification of the RNA ligand in the presence of Rev protein, was performed in 200 mM KOAc, 50 mM Tris-Cl pH 7.7, 1 mM DTT, and 5 mM MgCl₂. Concentration of protein was 500 nanomolar, and approximately in 3-fold molar excess over RNA concentration. Modification with protein present was attempted with all modifying agents listed above except ethylnitrosourea (ENU).

[3] = target: T1, HIV-1 reverse transcriptase (HIV-RT); assay: footprint; chemical protection and modification interference
Description: Selection of modified RNAs by HIV-RT. Binding reactions were as above except that rather than to vary the amount of HIV-RT added to a reaction, the volume of reaction was increased in order to lower concentration. RNAs that were modified under denaturing conditions were selected at concentrations of 20, 4 and 0.8 nanomolar HIV-RT (in volumes of 1, 5 and 25 mls of binding buffer.) The amount of RNA added to each reaction was equivalent for each experiment (approximately 1-5 picomoles). RNA was eluted from filters as described in Tuerk et al. (1990) J. Mol. Biol. 213:749; Tuerk and Gold (1990) Science 249:505-510, and assayed for modified positions. In each experiment a control was included in which unselected RNA was spotted on a filter, eluted and assayed for modified positions in parallel with the selected RNAs. Determinations of variation in chemical modification for selected versus unselected RNAs were made by visual inspection of exposed films of electrophoresed assay products with the following exceptions. The extent of modification interference by ENU was determined by densitometric scanning of films using an LKB laser densitomer. An index of modification interference (M.I.) at each position was calculated as follows:
Assay of chemical modification. […]

HIV-1 Rev [4] = target: T2, HIV-1 Rev; assay: filter; high-affinity ligand; modification interference; 200 mM KOAc, 50 mM Tris pH 7.7, 10 mM DTT, 37 C; conditions: tags: American Biotechnologies, Inc
Description: as §1
Modification interference of Rev binding. RNAs chemically modified under denaturing conditions were selected for Rev binding through filter partitioning. […]
The extent of modification interference was determined by densitometric scanning of autoradiographs using LKB (ENU) and Molecular Dynamics (DMS, kethoxal, CMCT, and DEPC) laser densitometers. […]

B1: 2'-methoxy mixed ligand B oligonucleotide (mixed)
RNA: AAAAAUCCGAAGUGCAACGGGAAAAUGCACU
modifications: AAAAA 5' tail deoxy; UCCGA and ACGGGAAAA mixed 2'-OH/2'-OMe; AGUGCA and UGCACU 2'-OMe
Does B1 bind [1]?
Result: binds

B2: extended Rev ligand 6a (ssRNA)
RNA: GGGUGCAUUGAGAAACACGUUUGUGGACUCUGUAUCUAUGAAAGAAUUUUAUAUCUCUAUUGAAAC
Does B2 bind (HIV-1 Rev [2])?
Result: binds

B3: lengthened ligand B (ssRNA)
RNA: GGUCCGAAGUGCAACGGGAAAAUGCACUAUGAAAGAAUUUUAUAUCUCUAUUGAAAC
Does B3 bind [3]?
Result: binds

Does GGGUGCAUUGAGAAACACGUUUGUGGACUCUGUAUCU (ssRNA) [Rev ligand 6a] bind (HIV-1 Rev [4])?
Result: binds
